{"source": "paper PMC5419587", "about": "(Virology, 2017)", "molecular_target": "T1, SAMD9 1-385, purified (human, UniProt Q5K651 1-385)", "T1 sequence (looked up)": "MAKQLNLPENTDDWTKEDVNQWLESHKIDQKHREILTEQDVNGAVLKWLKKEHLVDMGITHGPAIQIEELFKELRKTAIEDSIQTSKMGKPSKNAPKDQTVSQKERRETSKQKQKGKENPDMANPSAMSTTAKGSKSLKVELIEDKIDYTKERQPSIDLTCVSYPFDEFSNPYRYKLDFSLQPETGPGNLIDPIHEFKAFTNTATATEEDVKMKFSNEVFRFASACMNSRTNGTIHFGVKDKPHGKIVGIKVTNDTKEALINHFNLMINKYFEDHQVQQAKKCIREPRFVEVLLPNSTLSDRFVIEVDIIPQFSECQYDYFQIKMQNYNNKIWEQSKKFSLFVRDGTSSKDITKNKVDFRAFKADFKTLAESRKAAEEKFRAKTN", "assay": "SPR", "data": [{"binder": "MYXV M062 protein, purified (natural protein) MGVQHKLDIFLVSEGIAIKEANLLKGDSYGCTIKIKLDKEKTFKFVIVLEPEWIDEIKPIYMKVNDESVELELDYKDAIKRIYSAEVVLCSDSVINLFSDVDVSYTCEYPTIKVNTIKKYYSVQNRGMTYVHIESPINTKDKCWFVEKNGWYEDRTHS", "values": [{"measurement": "Kd", "result": "10 ± 5", "unit": "µM"}]}]}
